The values that follow come from patent US20210332428A1.

For assay [1], the target named is human β2-adrenergic receptor (ADRB2) in nanodiscs, GRK2-phosphorylated, DNA barcoded (human) (UniProt P07550). Description: polony co-localization at varied β-arr2 concentrations; reference is ADRB2 without GRK2-mediated phosphorylation.
For assay [2] the target is unchanged. Description: polony co-localization, β-arr2 titration on isoproterenol-saturated phosphorylated ADRB2, one-site-specific fit.

Regarding “β-arr2-TolA-HaloTag (β-arrestin-2, DNA barcoded) (from UniProt P19934 131-225)”, the fold increase of the average co-localization ratios after the phosphorylation in assay [1] fell in the range of 3 to 11 fold. Further, the dissociation constant Kd in assay [2] is 0.95 nM.

Broadly, the Kd is a measure of binding affinity in units of concentration. A higher Kd goes with a looser complex.
